This passage reports self-cleavage results from the RNAGym collection of RNA variant scans (doi:10.7554/elife.80360).

The chains are these.
B1: HDV Ribozyme (parent)
chain: GGCCGGCAUGGUCCCAGCCUCCUCGCUGGCGCCGGCUGGGCAACAUUCCGAGGGGACCGUCCCCUCGGUAAUGGCGAAUGGGACCCA

The variants in the data set derive from B1. As to the kind of experiment: self-cleavage, relative activity (ratio to wild type); higher = more cleavage; co-transcriptional.
Take AGCCGGGAUGGUCCCAGCCUCCUCGCUGGCGCCGGCUGGGCAACAUUCCGAGGGGACCGUCCCCUCGGUAAUGGCGAAUGGGACCCA [G1A C7G]: the self-cleavage amounted to 0.0405.
Consider AGCCGGCAUGGUCCCAGCCUCCUCGCUGGCGCCGGCUGGGCAACAUUCCGAGGGGACCGUCCCCUCGGUAGUGGCGAAUGGGACCCA [G1A A71G], for which the self-cleavage is 0.104.
With AGCCGGCAUGGUCCGAGCCUCCUCGCUGGCGCCGGCUGGGCAACAUUCCGAGGGGACCGUCCCCUCGGUAAUGGCGAAUGGGACCCA [G1A C15G] the figure was 0; with AGCCGGCAUGGUCCCAGCCUCCUCGCUGGCGCCGGCUGGGCAUCAUUCCGAGGGGACCGUCCCCUCGGUAAUGGCGAAUGGGACCCA [G1A A43U], 0.0437.
In the case of AGCCGGCAUGGUCCCAGCCUCCUCGCUGGCGCCGGCUGGGCAGCAUUCCGAGGGGACCGUCCCCUCGGUAAUGGCGAAUGGGACCCA [G1A A43G] it was 0.0875; in that of AGCCGGCAUGGUCCCAGCCUCCUCGCUGGCGCCGGCUGGGCACCAUUCCGAGGGGACCGUCCCCUCGGUAAUGGCGAAUGGGACCCA [G1A A43C], 0.0415.
In the case of AGCCGGCAUGGUACCAGCCUCCUCGCUGGCGCCGGCUGGGCAACAUUCCGAGGGGACCGUCCCCUCGGUAAUGGCGAAUGGGACCCA [G1A C13A] it was 0.0639.
Take AGCCGGCAUGGUGCCAGCCUCCUCGCUGGCGCCGGCUGGGCAACAUUCCGAGGGGACCGUCCCCUCGGUAAUGGCGAAUGGGACCCA [G1A C13G]: the self-cleavage turned out to be 0.
In the case of AGCCGGCAUGGUUCCAGCCUCCUCGCUGGCGCCGGCUGGGCAACAUUCCGAGGGGACCGUCCCCUCGGUAAUGGCGAAUGGGACCCA [G1A C13U] it was 0.119.
With AGCCGGCCUGGUCCCAGCCUCCUCGCUGGCGCCGGCUGGGCAACAUUCCGAGGGGACCGUCCCCUCGGUAAUGGCGAAUGGGACCCA [G1A A8C] the figure was 0; with AGCAGGCAUGGUCCCAGCCUCCUCGCUGGCGCCGGCUGGGCAACAUUCCGAGGGGACCGUCCCCUCGGUAAUGGCGAAUGGGACCCA [G1A C4A], 0.166; with AGCCGGCAUGGUCUCAGCCUCCUCGCUGGCGCCGGCUGGGCAACAUUCCGAGGGGACCGUCCCCUCGGUAAUGGCGAAUGGGACCCA [G1A C14U], 0.415.
With AGCCGGCAUGGUCACAGCCUCCUCGCUGGCGCCGGCUGGGCAACAUUCCGAGGGGACCGUCCCCUCGGUAAUGGCGAAUGGGACCCA [G1A C14A] the figure was 0.0573; with AGCCGGCAUGGUCCCAGCCUCCUCGCUGGCGCCGGCUGGGCAACAUUCCGGGGGGACCGUCCCCUCGGUAAUGGCGAAUGGGACCCA [G1A A51G], 0; with AGCCGGCAUGGUCCCAGCCUCCUCGCUGGCGCCGGCUGGGCAACAUUCCGAGGGGUCCGUCCCCUCGGUAAUGGCGAAUGGGACCCA [G1A A56U], 0.217.
In the case of AGCCGGCAUGGUCCCAGCCUCCUCGCUGGCGCCGGCUGGGCAACAUUCCGAGGGGGCCGUCCCCUCGGUAAUGGCGAAUGGGACCCA [G1A A56G], the self-cleavage turned out to be 0.
With AGCCGGCAUGGUCCCAGCCUCCUCGCUGGCGCCGGCUGGGCAACAUUCCGAGGGGCCCGUCCCCUCGGUAAUGGCGAAUGGGACCCA [G1A A56C] the figure was 0.107; with AGUCGGCAUGGUCCCAGCCUCCUCGCUGGCGCCGGCUGGGCAACAUUCCGAGGGGACCGUCCCCUCGGUAAUGGCGAAUGGGACCCA [G1A C3U], 0.297; with AGCCGGCAUGGUCCCAGCCUCCUCGCUGGCGCCGGCUGGGCAACAUUCCGAGGGGACCGUCCCCUCGGUAAUGGCGAAUGGGUCCCA [G1A A83U], 0.
With AGCCGGCAUGGUCCCAGCCUCCUCGCUGGCGCCGGCUGGGCAACAUUCCGAGGGGACCGUCCCCUCGGUAAUGGCGAAUGGGGCCCA [G1A A83G] the figure was 0.219; with AGCCGGCAUGGUCCCAGCCUCCUCGCUGGCGCCGGCUGGGCAACGUUCCGAGGGGACCGUCCCCUCGGUAAUGGCGAAUGGGACCCA [G1A A45G], 0.185.
In the case of AGCCGGCAUGGUCCCAGCCUCCUCGCUGGCGCCGGCUGGGCAACCUUCCGAGGGGACCGUCCCCUCGGUAAUGGCGAAUGGGACCCA [G1A A45C] it was 0.268; in that of AGCCGGCAUGGUCCCAGCCUCCUCGCUGGCGCCGGCUGGGCAACAUUCCGAGGGGACCGUCCCCUCGGUCAUGGCGAAUGGGACCCA [G1A A70C], 0.192.
For AGCCGGCAUGGUCCCAGCCUCCUCGCUGGCGCCGGCUGGGCAACAUUCCGAGGGGACCGUCCCCUCGGUUAUGGCGAAUGGGACCCA [G1A A70U], the self-cleavage was 0.
As for AGCCGGCAUGGUCCCAGCCUCCUCGCUGGCGCCGGCUGGGCAACAUUCCGAGGGGACCGUCCCCUCGGUAAUGGCGAGUGGGACCCA [G1A A78G], the self-cleavage worked out at 0.
With AGCCGGCAUGGUCCCAGCCUCCUCGCUGGCGCCGGCUGGGCAACAUUCCGAGGGGACCGUCCCCUCGGUAAUGGCGAUUGGGACCCA [G1A A78U] the figure was 0.0449; with AGCCGGCAUGGUCCCAGCCUCCUCGCUGGCGCCGGCUGGGCAACAUUCCGAGGGGACCGUCCCCUCGGUAAUGGCGAAUGGGACCCG [G1A A87G], 0.141; with AGCCGGCAUGGUCCCCGCCUCCUCGCUGGCGCCGGCUGGGCAACAUUCCGAGGGGACCGUCCCCUCGGUAAUGGCGAAUGGGACCCA [G1A A16C], 0.158.
With AGCCGGCAUGGUCCCUGCCUCCUCGCUGGCGCCGGCUGGGCAACAUUCCGAGGGGACCGUCCCCUCGGUAAUGGCGAAUGGGACCCA [G1A A16U] the figure was 0; with AGCCGGCAUGGUCCCAGCCUCCUCGCUGGCGCCGGCUGGGCGACAUUCCGAGGGGACCGUCCCCUCGGUAAUGGCGAAUGGGACCCA [G1A A42G], 0.115.
For AGCCGGCAUGGUCCCAGCCUCCUCGCUGGCGCCGGCUGGGCAACAUUCCGAGGGGACCGUCCCCUCGGUAAUGGCGGAUGGGACCCA [G1A A77G], the self-cleavage came to 0.237.
In the case of AGCCGGCAUGGUCCCAGCCUCCUCGCUGGCGCCGGCUGGGCAACAUUCCGAGGGGACCGUCCCCUCGGUAAUGGCGUAUGGGACCCA [G1A A77U] it was 0.
